Measured values as given in PMC4098657 (Molecular microbiology, 2009).

T1: His-tagged FrzCD full-length protein (M. xanthus, UniProt P43500 1-417)
T1 sequence (looked up): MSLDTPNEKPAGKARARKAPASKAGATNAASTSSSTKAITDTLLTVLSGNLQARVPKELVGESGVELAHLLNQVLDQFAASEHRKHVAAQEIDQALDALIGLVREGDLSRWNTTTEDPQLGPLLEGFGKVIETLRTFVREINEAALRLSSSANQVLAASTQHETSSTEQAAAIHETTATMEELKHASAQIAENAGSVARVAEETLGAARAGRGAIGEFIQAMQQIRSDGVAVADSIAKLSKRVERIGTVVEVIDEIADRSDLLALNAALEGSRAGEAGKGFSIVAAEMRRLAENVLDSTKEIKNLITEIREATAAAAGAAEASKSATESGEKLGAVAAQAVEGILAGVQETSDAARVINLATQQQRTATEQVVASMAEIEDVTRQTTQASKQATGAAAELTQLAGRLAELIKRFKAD

B1: AglZ^Rec (domain or fragment, M. xanthus, UniProt Q1D823 2-240, looked up)
chain: ERRVLIVESEHDFALSMATVLKGAGYQTALAETAADAQRELEKRRPDLVVLRAELKDQSGFVLCGNIKKGKWGQNLKVLLLSSESGVDGLAQHRQTPQAADGYLAIPFEMGELAALSHGIVPPGTDDTGASLDAALNGTREAPPPMPPSLKAAAGGPPKLPKRERRSAMTEEDRAFLDRTFQSIADRKAELLAESRQLKRPPPRRELMGTPEGKIQILRDELKTREAQLARLSEIWNVR

What was measured:
Test in all cases: cross-linking
cross-linking = molecular target: the molecule itself
AglZ^Rec = molecular target: B1
[1] = molecular target: T1, His-tagged FrzCD full-length protein

binding result (AglZ^Rec) | binding result [1] | Binder | binding result (cross-linking)
 |  | FrzCD^C-ter (domain or fragment, M. xanthus, UniProt P43500 132-417, looked up) ETLRTFVREINEAALRLSSSANQVLAASTQHETSSTEQAAAIHETTATMEELKHASAQIAENAGSVARVAEETLGAARAGRGAIGEFIQAMQQIRSDGVAVADSIAKLSKRVERIGTVVEVIDEIADRSDLLALNAALEGSRAGEAGKGFSIVAAEMRRLAENVLDSTKEIKNLITEIREATAAAAGAAEASKSATESGEKLGAVAAQAVEGILAGVQETSDAARVINLATQQQRTATEQVVASMAEIEDVTRQTTQASKQATGAAAELTQLAGRLAELIKRFKAD | binds
binds |  | FrzCD^N-ter (domain or fragment, M. xanthus, UniProt P43500 2-135, looked up) SLDTPNEKPAGKARARKAPASKAGATNAASTSSSTKAITDTLLTVLSGNLQARVPKELVGESGVELAHLLNQVLDQFAASEHRKHVAAQEIDQALDALIGLVREGDLSRWNTTTEDPQLGPLLEGFGKVIETLR | binds
 | binds | B1 | 
